Laboratory results taken from publication PMC8626073.

Target: T1, NlFMD-F (female-specific isoform, SR-rich protein) (Nilaparvata lugens, UniProt A0A974LNP1 1-613)
T1 sequence: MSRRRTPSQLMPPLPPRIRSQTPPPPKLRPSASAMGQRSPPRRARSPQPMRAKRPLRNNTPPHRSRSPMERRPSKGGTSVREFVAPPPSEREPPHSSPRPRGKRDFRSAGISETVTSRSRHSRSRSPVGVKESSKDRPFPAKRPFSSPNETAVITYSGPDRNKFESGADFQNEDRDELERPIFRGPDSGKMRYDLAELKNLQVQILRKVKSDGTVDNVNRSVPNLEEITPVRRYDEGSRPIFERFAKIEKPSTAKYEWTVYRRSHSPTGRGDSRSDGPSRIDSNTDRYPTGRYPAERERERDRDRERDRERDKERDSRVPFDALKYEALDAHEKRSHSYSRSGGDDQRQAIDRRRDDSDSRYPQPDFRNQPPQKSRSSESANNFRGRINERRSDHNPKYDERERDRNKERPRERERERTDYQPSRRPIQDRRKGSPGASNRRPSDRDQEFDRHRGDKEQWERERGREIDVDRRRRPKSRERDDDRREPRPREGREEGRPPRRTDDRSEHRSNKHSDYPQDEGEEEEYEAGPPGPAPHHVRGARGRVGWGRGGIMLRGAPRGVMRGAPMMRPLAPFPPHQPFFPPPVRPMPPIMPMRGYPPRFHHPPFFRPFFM
Assay: MST

Binder: GAAGAAGAA (ssRNA) [GAAGAAGAA repeat (RAAGAA motif)]
- binding result: no binding
